Data: the DeepSol protein solubility set

Test: soluble on expression in E. coli; label from the status in PepcDB or PDB records

| Sequence | soluble on expression in E. coli |
| --- | --- |
| MATNRSRRLRKKLCVDEFQELGFELNFHYKEGVDADAVNAFMLRFIDQAIEANELTYGGCDEFGFVCLARRGSVNEEQRALIEAWLKQQPELASVEVGALVDAWYPEQPVLPKL | not soluble |
| THMRCRVYYEDTDSEGVVYHANYLKYCERARSEFFFKQNVLPENEEGVFVIRSIKADFFTPASLGQVLEIRTQIKELRKVFVVLFQEIYCIQNASLEPMKPFKVFASEIKFGFVNRSTYSPIAIPKLFKELLNAI | soluble |
| GCALNCSFCSTAKQGFNRNLSTAEIIGQVWLAARELSDNNGTHDKKITNVVMMGMGEPLLNFDNVVSAMNIMMDDLAYGLSKRRVTLSTSGVLPEMERLREVSPVALAVSLHAPTDELRNELVPINKKYPLSQLISLCKRYFKDEPRRKVTFEYVMLKGVNDQPEHASQLIKLLHNVPAKVNLIPFNPFPLTQYQRSSRETIDAFRDKLMKHGINTITRKTRG | not soluble |
| MNRMEYNPIKKVVSGNYAAAYAALHARVQVVAAYPITPQTSIIEKIAEFIANGEADIQYIPVESEHSAMAACIGASATGARVFTATSAQGLALMHEMLHWAAGSRLPIVMVNVNRAMAPPWSVWDDQTDSLSQRDTGWMQFYAENNQEVYDGVLMAYKVAETVNIPTMIIESAFILSHTYEVVNMIPQELVDEFLPPRKPLYTLTDFENPIAVGALATPADYYEFRYKIAKAHEEAKKVIKSVGKEFGERFGRDYSKMIETGYIEDADFVFMGMGSLMGTVKEAVDLLRKEGYKVGYAKVRWFRPFPKEELLEIAESVKGIAVLDRNFSFGQEGILFTEAKGALYNTGVRPIMKDYIVGLGGRDFTVRDVKAIAEDMKKVVESGKLDKEIEWYHLKR | soluble |
| MELYELAQAAGGGIDPDVFKILVDLLKLNVAPLAVFQMLKSMCAGQRLASEPQDPAAVSLPTSSVPETRGRDKGSAALGGVLALAERSNHEGSSQRMPRQPSATRLPKGGGPGKSPTQGST | soluble |
| GSQEEDLPRPSISAEPGTVIPLGSHVTFVCRGPVGVQTFRLERESRSTYNDTEDVSQASPSESEARFRIDSVSEGNAGPYRCIYYKPPKWSEQSDYLELLVKEAAA | soluble |
| MEASSSAQAKIADMREKLGREVRVFETSSISQRPSQVSSADDESDDFYEFTPADFYRLLATKKEDKSLKTRKIREAEEAARRSKLTKAVIRVRFPDNHTLEATFHPSEKIQGLIDLVKRVVAHPDVPFYLYTTPPKKQIKDFSQDFYSAGFVPGAIVYFSNDQPKDDGGSSTPYLNEEILSLKDLEAMTKAVEPVESSSEPATVDSSAVPVEHERKSTEKKTTKPKWFKM | soluble |
| MSLVMVVDGSKLVRKLITDVLRRELPEVDVIGCVGIAEARQTLEAGTVDLVTTSLFLPDGDGLALARSVREEAGQAYVPVIVVSGDTQQHLVERRFTEYVTDYFDKALGHEALAAFIRGYVQPEPVSSGTVLYVEDSCVVAEATTRMLERQGLRVVHVLTAEDAFALLTAESLGRTEYRINLVLTDVTLKGELSGCDVVQRIRIDFSYGKRRLPVLVMTGDTNSQNQSELLRAGANDLVQKPIEERLLVTKVLFQLRLARLKDDLATIEGHHHHHH | not soluble |
| MSAVSNGNPSIVSPRGEHKGTLIFLHGLGDQGHGWADAFKTEAKHDNIKFICPHSSERPVTLNMGMRMPAWFDLFGLDPNAQEDEQGINRATQYVHQLIDAEVAAGIPASRIAVGGFSMGGALAIYAGLTYPQKLGGIVGLSSFFLQRTKFPGSFTANNATPIFLGHGTDDFLVPLQFGQMSEQYIKKFNPKVELHTYRGMQHSSCGEEMRDVKTFLSAHIAH | not soluble |
| MSYVIDRRLNGKNKSTVNRQRFLRRYRDHIKKAVEEAVSRRSITDMEHGEQISIPGRDIDEPVLHHGRGGKQTVVHPGNKEFTTGEHIARPQGGAGGKGPGKAGNSGEGMDEFSFQITQEEFLEFMFEDLELPNLVKRNLTGTDTFKTVRAGISNEGNPSRINIIRTLRSAHARRIALSGSSRAKLREATSELERIKREEPDNFGDIQALEVEIDRLKARIRRVPYLDTFDLKYNLLVKQPNPSSKAVMFCLMDVSGSMTQATKDIAKRFFILLYLFLKRNYDKIDVVFIRHHTSAREVDEEEFFYSRETGGTIVSSALKLMQEIMAARYPSSDWNIYAAQASDGDNWNDDSPICREILTKQIMPFVQYYTYVEITPREHQALWYEYERIGDDFADTFAQQQLVSAGDIYPVFRELFQRRLVSAAALEHHHHHH | not soluble |
| MAHHHHHHMRRALHAAALPSRAPLTPQRYKSYVLKFLRGQLPHDLKDCAGALGCLYGTLPDVDEYRQFVVPLQVLQQYHQLGYAKLPRPVLDPPQVDILADEVNQLANNVEHHPKSEHLYATSLADLTGGPLFYCQGQWRCAWGMHDLVYLPTLTVAASQALGNRLVRLWYDEAFMKEARTGPCVPWQQNYVRWQHTTPVNHVSIMIALDTLNKDRGAPCLIPGSHRWREGQLLPPVPYDPTQSETQQLNTIWDITNDDEQEMLADTPPATVDLRRGEALLIHPKTLFATHGNRSLDAARCCCVHYMGEATCAVQDGPLLPHTTRFRAGTRVSGPFFPVVFDPAMTEDLLMLDNKEGGAAA | not soluble |
| MGHHHHHHSHMQHPQTHRQLKETLYETIIGYFDKGKMWEEAISLCKELAEQYEMEIFDYELLSQNLIQQAKFYESIMKILRPKPDYFAVGYYGQGFPSFLRNKVFIYRGKEYERREDFQMQLMTQFPNAEKMNTTSAPGDDVKNAPGQYIQCFTVQPVLDEHPRFKNKPVPDQIINFYKSNYVQRFHYSRPVRRGTVDPENEFASMWIERTSFVTAYKLPGILRWFEVVHMSQTTISPLENAIETMSTANEKILMMINQYQSDETLPINPLSMLLNGIVDPAVMGGFAKYEKAFFTEEYVRDHPEDQDKLTHLKDLIAWQIPFLGAGIKIHEKRVSDNLRPFHDRMEECFKNLKMKVEKEYGVREMPDFDD | soluble |
| MKEIKIGLIGFGTIGTGVAKLLQANAGLIADKVGAMVTLKKIADLDVTTDRGIELPPGTLTSNVADVLDDPEISVVIELIGGYEPAKSFVLRAINNGKHVVTANKALLALHGEEIYPAAAAKGVQVLFEAAVGGGIPVISAILGNMAANNFTTVLGILNGTCNYILTRMTQEGADFGDVLKTAQELGYAEADPTFDIEGVDTAHKLALLVSLCFGTKVDFNAIHTEGISSISSADIGFARDFGYKIKLLAIGKRTGDTVEARVHPTMIPVNYPLADVDGVFNAIRFTGDFIGPVMFYGRGAGMDPTASAVVGDVIEIARNIIAGVSRRCAPLGYRDEAVTTLALKPMGEIEGKYYLRFSAVDKPGVLAKISGALGKYDISIESMIQKGRSAGESVPIVIMTHEAREKDIRAALEEIDTFELISEKSRFIRIEDNLE | not soluble |
| MSLDLKITNGFYDPSHLSYEVVERKGLGHPDTLADGIAEQIEIDYSLYCLDKFGVIPHHNFDKIIIRGGHSVQDFGGSDFIEPIKIIFLGRASKKCFNSSIPLFKIQKKAATKYLNRILPNLDVENYVEFETLTSDFTTKTNWFSPEAIEDLPEYLDVPKANDTATMISYWPLTISEELALMIEGYFYKLDKNELPTPRFTKMGGDIKVMVVRNDLEYSIRINFPLISKFFNNDIESQLYVDKHVEKIKKYIEQKYKNISFSIDYHYYLTTTGSCIDFGEEGAVGRGNKTHGIISSFRPNTMEAPAGKNCTYFVGKVWGFLSDTIAKEIYEAFNTPCQIIMQLNIGSKLYRPTHLFIQTEESVDQERVLEIVNRHLNNGKQNTNLILSTQHFIPKTNVYDGEGHHHHHH | soluble |
| MGYSSDTTPCCFAYIARPMPRAHIKEYFYTSGKCSNPAVVFVTRKNRQVCANPEKKWVREYINSLEMS | soluble |
| MNSITVRNATFTWARSDPPTLNGITFSIPEGALVAVVGQVGCGKSSLLSALLAEMDKVEGHVAIKGSVAYVPQQAWIQNDSLRENILFGCQLEEPYYRSVIQACALLPDLEILPSGDRTEIGEKGVNLSGGQKQRVSLARAVYSNADIYLFDDPLSAVDAHVGKHIFENVIGPKGMLKNKTRILVTHSMSYLPQVDVIIVMSGGKISEMGSYQELLARDGAFAEFLRTYASHHHHHH | soluble |
| MSLAQLDKNDPARGVLAAIAANASKIAEYDPRVRADEYDSVHQMRVATRELRSHLQTFEGILGGEDYLNLEKELKVLANILGRARDAEVVEERLSNLINTEVGDSIEEETKKELLEDLGAEYRREHERVVRALDNDRYTDLLQALENLLVDPPLITEVEEPEATEAPESAETTESTDVSEATEEADAEAESVEEATEQEESADAPESADLDALDEEYSPGSQAPVEEPKEPKKVDAALVLLEHLDKAHVKLVKLEKKARSQWDDLSIPMLEREENFHNLRKAAKKLRYSAEAVGKATTVETKKLYKACSGLQSVLGDYQDAITSRNELLRRAQVARRQGRDTFAYGILYQHEQTLSREYLTGYSDAFKSVEKAYAKLAEDTAKRSKKNKRKEGHHHHHH | not soluble |
| GHHHHHHAIAENLYFQSEDPVFTFGLIADVQYADIEDGENYLRTRRRYYRGSADLLRDAVLQWRRERVQCVVQLGDIIDGHNRRRDASDRALDTVMAELDACSVDVHHVWGNHEFYNFSRPSLLSSRLNSAQRTGTDTGSDLIGDDIYAYEFSPAPNFRFVLLDAYDLSVIGREEESEKHTHSWRILTQHNHNLQDLNLPPVSVGLEQRFVKFNGGFSEQQLQWLDAVLTLSDHKQERVLIFSHLPVHPCAADPICLAWNHEAVLSVLRSHQSVLCFIAGHDHDGGRCTDSSGAQHITLEGVIETPPHSHAFATAYLYEDRMVMKGRGRVEDLTITYS | soluble |
| MTPPRMRISGENELVQALLEHGHVLVEASEAELIFDPTQLVRRGQIVAHLGHATLADLDAYSSGHAFVLTELMPQIYAVTASDELAGMVAELLISELGGRVVHVPESQRDRLTAGLACAGFIGQVRSEARNLLTEALGNAHHADEVVEQLTDAVAPPLNVAALERGYHAIDSVGTKRLYAQLARRSGEVFRNNDVELWAMNQEQNNT | not soluble |
| MGSDKIHHHHHHMRKKLISILVDGVSADTFEKHAHRLPNMRHLAERGLRVRRLKSAVPATSVPGRATMLTGVGPETHGIYGNHIFRGDASVAPLAEDLLVPTIATHARQAGLDVAAIGQALVNPRDTSVYVSPWWLRGFMTGYRFSKMVTPEALAASRAIHDPEDRLAKAGLTEMDAFRDAADGGAPHLISGLALDQFLNRAVVALLGSDRPPDLLLTEIEMPDAFQHYLGYDSPAGIWSVEFADMLIGNLLAVLERTGRREDYVIAVASDHGHGFVDTAIFPEAIIPDMHWMTEGASLYVSLKAAGDLERVTERLLPYGVELWNDHHVPENLRGTVAMFVAPPRHSFEERPSDASGPLVATGSPHLISTHGFRPGSPEDDRMFILSGGGIAPKVIKAADADQFAPTLASVLGLPLEPYAGRSLIAEESPIARSPQSLELHLK | not soluble |
| MSLSEKAKKPQKLKARLPRGFVDRSAADIHATNEMVDKIRRVYELYGFDPIETPLFEYTDALGKFLPDSDRPNEGVFSLQDDDDQWMSLRYDLTAPLARHVAENFNEIQLPYRTYRAGYVFRNEKPGPGRFRQFMQFDADTVGAAGVQADAEMCMMMADTMEALGIARGDYVIRVNNRKVLDGVMEAIGLGGEDNAGRRLNVLRAIDKLDKFGPEGVKLLLGPGRKDESGDFTKGAGLGDEQIEKVLFFVGIKDYAASADDLAKLVAGTSKGEEGVDELNTIGALVSGAGYDATRIKIDPSVVRGLEYYTGPVYEAELTFDVTNEKGEKVVFGSVGGGGRYDGLVSRFMGQPVPATGFSIGVSRLMTALKNLGKLGQVKPLAPVLITVMDGDVESMGRYQRFTQALRAEGIRAEMYQGNWKKFGNQLKYADRLGSPIAIIQGGDERAEGVVQIKDLIEGKRLSGEIEDNASWREARVAQVSEGHHHHHH | soluble |
